Experimental findings from patent US20190055314A1 (ADAGENE, published 2019) are described below.

In general, Kd refers to the constant that tells how readily two partners part at equilibrium. A lower Kd goes with higher affinity.

Assay [1] addresses T1, rat CD137 on the cell surface (rat, UniProt Q4W8J3 24-258).
T1 sequence: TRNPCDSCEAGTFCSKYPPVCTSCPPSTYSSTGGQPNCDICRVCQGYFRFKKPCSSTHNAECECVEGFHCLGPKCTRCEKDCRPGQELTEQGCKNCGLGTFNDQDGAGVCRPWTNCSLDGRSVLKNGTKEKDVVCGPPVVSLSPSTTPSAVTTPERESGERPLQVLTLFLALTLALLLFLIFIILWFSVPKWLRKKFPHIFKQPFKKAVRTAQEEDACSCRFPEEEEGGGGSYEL
Put plainly: flow cytometry, HEK293F cells expressing CD137 [Cont.]. A general note: Flow cytometry measures light scatter and fluorescence of single cells or particles in a stream.
Description: (§1) The affinity of antibodies were also assessed against human, monkey and mouse CD137 that are transiently expressed on the surface of HEK293F cells. Briefly, HEK293F cells were transfected with a plasmid expressing full-length human, monkey or mouse CD137 from a bicistronic IRES vector, EGFP was used to identify the transfected cells. After 48 hrs, the transfected cells were harvested and then washed once with cold FACS buffer (PBS supplemented with 1% BSA). […] The cells were washed once prior to analysis by flow cytometry (Beckman® CytoFlex).

Assay [2] deals with T2, full-length mouse CD137 on the cell surface (mouse, UniProt P20334 24-178).
T2 sequence: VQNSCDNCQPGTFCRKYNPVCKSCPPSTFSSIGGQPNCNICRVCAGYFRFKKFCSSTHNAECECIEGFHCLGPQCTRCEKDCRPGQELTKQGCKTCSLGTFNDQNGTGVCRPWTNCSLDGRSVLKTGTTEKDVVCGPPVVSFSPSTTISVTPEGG
The assay is described as above.
Description: as §1

Assay [3] addresses T3, OX40 overexpressed on HEK293F cells (UniProt P43489 29-277, limits assumed).
T3 construct: whole, on cells
T3 sequence (looked up): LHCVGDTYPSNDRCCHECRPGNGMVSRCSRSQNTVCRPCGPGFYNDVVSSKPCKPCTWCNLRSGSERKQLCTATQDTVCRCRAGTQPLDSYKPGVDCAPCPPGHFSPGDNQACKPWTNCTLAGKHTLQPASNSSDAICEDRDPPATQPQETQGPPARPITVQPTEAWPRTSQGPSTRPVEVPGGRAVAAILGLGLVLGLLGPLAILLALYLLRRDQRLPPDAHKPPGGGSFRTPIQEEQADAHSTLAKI
Put plainly: flow cytometry, HEK293F cells expressing the receptor, antibody 100 nM [Cont.].
Description: (§2) The selectivity of antibodies for CD137 was evaluated using flow cytometry analysis of their binding ability to members of TNFR superfamily. The TNFRSF receptors including CD137, OX40, CD40, GITR and CD27 were transiently overexpressed on the surface of HEK293F cells. Transfected cells were washed in pre-chilled staining buffer (PBS supplemented with 2% FBS), then incubated with 100 nM test antibodies for 1 hr on ice. […] Samples were washed once with staining buffer prior to analysis by flow cytometry.

For assay [4], the target named is T4, CD40 overexpressed on HEK293F cells (UniProt P25942 21-277, limits assumed).
T4 construct: whole, on cells
T4 sequence (P25942 21-277 limits assumed): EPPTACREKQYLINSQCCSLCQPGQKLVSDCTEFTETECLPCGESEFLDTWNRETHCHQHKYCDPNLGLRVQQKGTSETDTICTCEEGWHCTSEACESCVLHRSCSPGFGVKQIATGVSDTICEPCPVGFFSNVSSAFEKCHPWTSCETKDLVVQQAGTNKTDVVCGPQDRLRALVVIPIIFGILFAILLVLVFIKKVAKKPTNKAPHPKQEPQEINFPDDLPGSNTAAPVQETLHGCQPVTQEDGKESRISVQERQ
Described as above.
Description: as §2

The target in assay [5] is T5, GITR overexpressed on HEK293F cells (UniProt Q9Y5U5 26-241, limits assumed).
T5 construct: whole, on cells
T5 sequence (looked up): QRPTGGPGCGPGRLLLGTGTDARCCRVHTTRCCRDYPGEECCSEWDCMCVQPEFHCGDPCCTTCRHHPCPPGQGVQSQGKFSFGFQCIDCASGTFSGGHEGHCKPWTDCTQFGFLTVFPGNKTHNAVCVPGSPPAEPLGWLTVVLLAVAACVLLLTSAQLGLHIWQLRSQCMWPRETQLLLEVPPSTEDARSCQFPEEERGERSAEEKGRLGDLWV
The description is as above.
Description: as §2

For assay [6], the target named is T6, CD27 overexpressed on HEK293F cells (UniProt P26842 20-260, limits assumed).
T6 construct: whole, on cells
T6 sequence (looked up): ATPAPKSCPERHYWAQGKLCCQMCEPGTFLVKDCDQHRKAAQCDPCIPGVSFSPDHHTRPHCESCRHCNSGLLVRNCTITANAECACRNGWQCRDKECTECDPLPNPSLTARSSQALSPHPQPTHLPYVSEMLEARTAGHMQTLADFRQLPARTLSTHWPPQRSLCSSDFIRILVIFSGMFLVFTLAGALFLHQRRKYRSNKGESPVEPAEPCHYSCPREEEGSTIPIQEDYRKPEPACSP
The assay is described as above.
Description: as §2

The target of assay [7] is T7, mouse CD137 fused with human FC fragment (mouse, UniProt P20334 24-178, limits assumed).
T7 construct: also called mouse CD137-Fc; not shown: human Fc fragment
T7 sequence: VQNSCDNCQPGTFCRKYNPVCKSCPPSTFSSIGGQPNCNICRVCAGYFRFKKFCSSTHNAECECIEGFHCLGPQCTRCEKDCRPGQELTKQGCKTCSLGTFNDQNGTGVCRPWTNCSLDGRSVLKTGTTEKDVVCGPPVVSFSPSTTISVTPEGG
Put plainly: ELISA, coated CD137-Fc. (ELISA stands for enzyme-linked immunosorbent assay.)

Assay [8] concerns the target T2, full-length mouse CD137 on the cell …. In words: cell-based or functional assay.
Assay [9] addresses T8, CD95.
T8 chain: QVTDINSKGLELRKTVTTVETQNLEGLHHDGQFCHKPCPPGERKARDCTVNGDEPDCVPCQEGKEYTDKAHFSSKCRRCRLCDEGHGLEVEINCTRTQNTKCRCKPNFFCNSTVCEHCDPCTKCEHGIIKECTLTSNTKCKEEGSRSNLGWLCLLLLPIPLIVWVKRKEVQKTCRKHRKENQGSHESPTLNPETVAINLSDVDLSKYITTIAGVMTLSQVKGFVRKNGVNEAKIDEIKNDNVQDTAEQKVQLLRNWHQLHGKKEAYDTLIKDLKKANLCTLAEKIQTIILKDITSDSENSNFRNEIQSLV
In words: flow cytometry, HEK293F cells expressing the receptor [Cont.].
Description: as §2

Assay [10] has as its target T9, CD120a.
T9 chain: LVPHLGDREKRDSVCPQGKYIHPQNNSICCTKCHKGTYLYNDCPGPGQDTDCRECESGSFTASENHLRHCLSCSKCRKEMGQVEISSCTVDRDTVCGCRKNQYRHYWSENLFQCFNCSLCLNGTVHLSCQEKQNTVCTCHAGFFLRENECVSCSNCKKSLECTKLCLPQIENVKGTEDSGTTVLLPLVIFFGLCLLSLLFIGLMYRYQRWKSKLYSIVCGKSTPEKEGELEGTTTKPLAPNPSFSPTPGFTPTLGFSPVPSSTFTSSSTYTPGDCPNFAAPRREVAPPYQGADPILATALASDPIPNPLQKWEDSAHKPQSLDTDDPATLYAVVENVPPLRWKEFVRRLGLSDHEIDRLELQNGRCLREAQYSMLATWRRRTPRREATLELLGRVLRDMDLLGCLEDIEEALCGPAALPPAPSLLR
The assay is described as above.
Description: as §2

In assay [11] the target is T4, CD40 overexpressed on HEK293F cells. In words: flow cytometry, HEK293F cells expressing the receptor, antibody 100 nM.
Description: as §2
Assay [12] deals with T5, GITR overexpressed on HEK293F cells. The description is as above.
Description: as §2
Assay [13] has as its target T8, CD95. In words: flow cytometry, HEK293F cells expressing the receptor, antibody 100 nM [Cont.].
Description: as §2
In assay [14] the target is T9, CD120a. The assay is described as above.
Description: as §2

B1: AG10059 (antibody, human IgG4 S228P, kappa, V domains shown)
VH: EVQLVESGGGLVQPGGSLRLSCAASGYSITSGHYWAWIRQAPGKGLEWVSSISGYGSTTYYADSVKGRFTISRDNSKNTLYLQLNSLRAEDTAVYYCARGGSDAVLGDWFAYWGQGTLVTVSS
VL: DIQLTQSPSSLSASVGDRVTITCRASQGIGSFLAWYQQKPGKAPKLLIYDASNLETGVPSRFSGSGSGTDFTLTISSLQPEDFATYYCQQGYYLWTFGQGTKVEIKR
B1: the binding result in assay [1] and in [2] was “no binding (tested: 100 nM (text paragraph 220))” in each case. Besides, the Mean in assay [3] was 6780; in assay [4] it was 7260; in assay [5] it was 5980; in [6] it was 13200.

B2: AG10058 (antibody, human IgG4 S228P, kappa, V domains shown)
VH: EVQLVESGGGLVQPGGSLRLSCAASGFSLSTSGVGVGWIRQAPGKGLEWLALIDWDDDKYYSPSLKSRLTISRDNSKNTLYLQLNSLRAEDTAVYYCARGGSDTVLGDWFAYWGQGTLVTVSS
VL: DIQLTQSPSSLSASVGDRVTITCRASQSVSPYLAWYQQKPGKAPKLLIYDASSLESGVPSRFSGSGSGTDFTLTISSLQPEDFATYYCQQGYSLWTFGQGTKVEIKR
Consider B2, for which the affinity in assay [7], expressed as Kd, was 0.3 nM. Besides, the “NFκB luciferase reporter, 293T cells with mouse CD137: EC50 (read off the curve)” value in [8] is approximately 3 nM. Besides, the binding result with CD95 [9] and in the assay with CD120a [10] was “no binding (tested: 100 nM (text paragraph 226))” throughout. Moreover, the Mean amounted to 9300 in assay [11], 18600 in assay [12], 5370 in the assay with CD95 [13] and 8070 in the assay with CD120a [14].
